From the supplement of paper PMC12042874
± gives the uncertainty stated by the source.

Test: amyloid nucleation score (Sup35N fusion, yeast selection) (log enrichment); library NNK3; higher = more nucleation; inactive = no reads after selection
Procedure, shortened: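 Plasmid inserts were Illumina-sequenced at input and output from psi-negative yeast expressing Sup35N fused to peptides of 20 random codons. The yeast were induced with 100 μM copper sulfate for 24 hours and grown 7 days at 30°C on medium lacking adenine and uracil, and sequences with under 100 input reads were excluded. Nucleation score is the DiMSum log enrichment of output over input reads, centred on the mode score of non-aggregating sequences.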
With KAYISVIGKLDYQNFSMKRF the amyloid nucleation score was 2.41 ± 0.054.
With GGEGLVRQA the amyloid nucleation score was “inactive”.
With WRVPCLIVKYDV the amyloid nucleation score was “inactive”.
For SLKEVSFWSASRDDGGDRMQ, the amyloid nucleation score was “inactive”.
With AIALLSPSDYVHSLGFHMVA the amyloid nucleation score was “inactive”.
In the case of AQGKSRPYPLSNSPSGVRRS, the amyloid nucleation score is reported as “inactive”.
In the case of ANHCLCRGSKYLRKRVNLAI, the amyloid nucleation score is reported as “inactive”.
For AFTCYELAGIWRNVTVPCYL, the amyloid nucleation score was “inactive”.
In the case of STLRWLR, the amyloid nucleation score is reported as “inactive”.
In the case of FLLSVNQASNYGTWILWFYR, the amyloid nucleation score is reported as “inactive”.
For HELELRFLSGWSREFLELEG, the amyloid nucleation score was “inactive”.
With SIHCIYSWR the amyloid nucleation score was 1.27 ± 0.12.
With TISGLNM the amyloid nucleation score was “inactive”.
With KRFTLFSMIYGRV the amyloid nucleation score was “inactive”.
For SYGKTFAMSYVW, the amyloid nucleation score was “inactive”.
For PQDKRASACRVWAPNKNGRG, the amyloid nucleation score was “inactive”.
For PMVISHMGLFFLKVGISR, the amyloid nucleation score was “inactive”.
In the case of GNMLSPI, the amyloid nucleation score is reported as “inactive”.
With SISPVSPGIRAKITTAEMVR the amyloid nucleation score was -0.201 ± 1.1.
For LLLWSAIIYK, the amyloid nucleation score was “inactive”.
In the case of FKQIVKTSFNLCFFIRCKRT, the amyloid nucleation score is reported as “inactive”.
For MIGVSRLCNRRIF, the amyloid nucleation score was “inactive”.
In the case of KIMNSKNVLRHFSLGQWLHG, the amyloid nucleation score is reported as “inactive”.
For LYVFLLNECSWRAPGASI, the amyloid nucleation score was “inactive”.
With IMELLQV the amyloid nucleation score was “inactive”.
With FSMSWTVDMKE the amyloid nucleation score was “inactive”.
For VYRERPMSKEGRCIEWHNLA, the amyloid nucleation score was “inactive”.
In the case of KSKNPIIVFTYRM, the amyloid nucleation score is reported as 1.2 ± 0.14.
For NASIRDGNMTFFSQAVTRLA, the amyloid nucleation score was “inactive”.
With FSWRCCFHKNNDCAKTILMF the amyloid nucleation score was “inactive”.
With ESPAASMVLHRGRLVVCSLS the amyloid nucleation score was “inactive”.
For SGVSFDSIGVSVLQTHGGLR, the amyloid nucleation score was “inactive”.
For WVWMTETVLWFRYKQVACGW, the amyloid nucleation score was “inactive”.
With FFYWSWVQPEPY the amyloid nucleation score was “inactive”.
For FVVIAYTEDTGDYRMVLTQW, the amyloid nucleation score was “inactive”.
For LHGCTEITKGNYLPNNAVD, the amyloid nucleation score was “inactive”.
In the case of YYVVVQADVGNI, the amyloid nucleation score is reported as “inactive”.
In the case of NWIRS, the amyloid nucleation score is reported as “inactive”.
In the case of SCALDLIDLQKGVTSHKEFI, the amyloid nucleation score is reported as “inactive”.
Substance LICIQCWFYDSYHTQQLWGL has an amyloid nucleation score of 2.16 ± 0.056.
For NFYRFNIVRNNVLM, the amyloid nucleation score was “inactive”.
For GSASHDPTACCFYGFV, the amyloid nucleation score was “inactive”.
In the case of HQTLKSQD, the amyloid nucleation score is reported as “inactive”.
In the case of YRRLCGDCGFGTLRLDLLFV, the amyloid nucleation score is reported as “inactive”.
In the case of NFSMMPTMLRRVWIGMCSSM, the amyloid nucleation score is reported as “inactive”.
In the case of PLHRSE, the amyloid nucleation score is reported as “inactive”.
With VLACSHWLMLSRTKYMMRIV the amyloid nucleation score was “inactive”.
Work on CLPSVRQKGSWRLR yielded an amyloid nucleation score of -0.338 ± 0.82.
With MTSIQEF the amyloid nucleation score was “inactive”.
With INVDGKNNPSRREKTISMGG the amyloid nucleation score was “inactive”.
For KRLAKWGTMYLV, the amyloid nucleation score was “inactive”.
With VMDVEIGSASSLYKRTSTSE the amyloid nucleation score was “inactive”.
In the case of SNPLQGDSLRSVLSCNSIYF, the amyloid nucleation score is reported as “inactive”.
For FIWSAGGIITSHNCLYWQAS, the amyloid nucleation score was “inactive”.
For SACSYYTMHHIFGAMFHN, the amyloid nucleation score was “inactive”.
IMVKLSIIIVYC showed an amyloid nucleation score of 1.76 ± 0.083.
In the case of FGRSVDFMVIHFCTTY, the amyloid nucleation score is reported as “inactive”.
In the case of FGSNTGYVIEGRLAVGFEKL, the amyloid nucleation score is reported as “inactive”.
For EHWCFINFLELICYQYLFLP, the amyloid nucleation score was “inactive”.
For FNDYCSIKKSLTKSMYDLNG, the amyloid nucleation score was “inactive”.
In the case of LVNGVHLREWVTPRVECGSF, the amyloid nucleation score is reported as “inactive”.
For GNLSFTPGITRKKSVLEYRH, the amyloid nucleation score was “inactive”.
In the case of FHIPLSQRCLAPFCNAHL, the amyloid nucleation score is reported as “inactive”.
With YIGRRNMPNFSSMWMWSQGK the amyloid nucleation score was “inactive”.
With IAYNMCEIYVRVCYYFPIIC the amyloid nucleation score was “inactive”.
In the case of YVILGQDDHEKT, the amyloid nucleation score is reported as “inactive”.
For LPYLKQ, the amyloid nucleation score was “inactive”.
With GTAIIEGTM the amyloid nucleation score was “inactive”.
For YNVRSFLTKVEWTYYFS, the amyloid nucleation score was 0.391 ± 0.16.
In the case of ASPTQVNYFTLVKCMVLRTT, the amyloid nucleation score is reported as “inactive”.
MTSQSMKVISWCDRHRQMNS showed an amyloid nucleation score of 1.03 ± 0.13.
CTRHLQMFVNIF showed an amyloid nucleation score of 2.23 ± 0.056.
FLGDSTNGRRFFSEFRSEWG gave an amyloid nucleation score of 0.964 ± 0.17.
For VYTGHVGLFV, the amyloid nucleation score was “inactive”.
In the case of QDLTLLCVSIWWKLGWSESR, the amyloid nucleation score is reported as “inactive”.
For MIRTFKNSYISNGHCMVRRH, the amyloid nucleation score was “inactive”.
In the case of RFWLDYEGRNAYWMGITHVW, the amyloid nucleation score is reported as “inactive”.
In the case of RTMLTQFPCYWVSIHSVLVS, the amyloid nucleation score is reported as “inactive”.
With FGNLLVLSYDEDCNAATWVR the amyloid nucleation score was “inactive”.
